Measured values: paper PMC9563052

Target: fibrinogen γ-chain C-terminal residues 390-411 fused to GST
Assay: ELISA; ligand (γC390-411 or γC151-411) coated, soluble αIIbβ3 (1 µg/mL) pre-incubated with chemokine (CCL5, CXCL12 or CX3CL1) for 10 min, then 1 h at room temperature in HEPES-Tyrodes buffer with 1 mM CaCl2

fold binding to γC390-411 with CCL5 (50 µg/mL, 1 mM Ca2+) over 1 mM Mn2+ alone: 4.5 fold
fold binding to γC390-411 with CXCL12 (50 µg/mL, 1 mM Ca2+) over 1 mM Mn2+ alone: 3.5 fold
Substance: soluble recombinant integrin αIIbβ3 (from UniProt P08514 32-1039; P05106 27-718) (complex)
